Results on 2 molecules are retold here after publication doi:10.1101/2020.05.29.123786.

Where “and” joins values, the source holds several entries; their conditions need not be identical. Equal entries are not always repeated.

Assay in all cases: cryo-EM structure
Assay [1] addresses PilQ from Pseudomonas aeruginosa (type IVa pilus secretin) (Pseudomonas aeruginosa) (UniProt P34750).
The target of assay [2] is TsaP from Pseudomonas aeruginosa (Pseudomonas aeruginosa).
Assay [3] concerns the target T1, PilQ from Pseudomonas aeruginosa (type IVa pilus secretin) (Pseudomonas aeruginosa), P34750.
T1 chain: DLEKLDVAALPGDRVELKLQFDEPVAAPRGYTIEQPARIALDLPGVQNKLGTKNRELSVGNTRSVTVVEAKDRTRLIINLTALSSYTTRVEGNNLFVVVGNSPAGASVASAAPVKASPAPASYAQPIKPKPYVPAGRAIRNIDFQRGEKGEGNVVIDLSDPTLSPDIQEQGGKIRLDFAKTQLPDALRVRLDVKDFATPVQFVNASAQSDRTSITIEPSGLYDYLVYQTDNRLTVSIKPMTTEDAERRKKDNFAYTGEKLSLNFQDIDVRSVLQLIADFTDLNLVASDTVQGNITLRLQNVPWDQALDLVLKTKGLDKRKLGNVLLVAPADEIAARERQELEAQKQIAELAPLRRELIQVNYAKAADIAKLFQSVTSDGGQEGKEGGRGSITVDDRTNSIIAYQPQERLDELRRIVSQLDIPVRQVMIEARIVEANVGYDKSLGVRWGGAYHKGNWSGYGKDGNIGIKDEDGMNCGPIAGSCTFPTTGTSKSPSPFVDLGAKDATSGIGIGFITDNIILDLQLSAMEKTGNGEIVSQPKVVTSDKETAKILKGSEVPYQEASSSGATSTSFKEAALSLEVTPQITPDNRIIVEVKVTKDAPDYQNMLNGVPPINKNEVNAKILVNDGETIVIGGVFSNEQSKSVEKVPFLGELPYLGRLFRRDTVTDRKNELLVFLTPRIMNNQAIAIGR
Conditions: remark: other sources report otherwise.

By stoichiometry N is commonly meant a count of units in the complex or per binding partner. Molecule “TsaP from Pseudomonas aeruginosa (natural protein)” registered a stoichiometry N (TsaP per PilQ) in assay [1] of 0.5. The molecule also came in with a stoichiometry N in assay [2] of 7.

B1: PilQ from Pseudomonas aeruginosa (type IVa pilus secretin), P34750 25-714 (natural protein)
chain: DLEKLDVAALPGDRVELKLQFDEPVAAPRGYTIEQPARIALDLPGVQNKLGTKNRELSVGNTRSVTVVEAKDRTRLIINLTALSSYTTRVEGNNLFVVVGNSPAGASVASAAPVKASPAPASYAQPIKPKPYVPAGRAIRNIDFQRGEKGEGNVVIDLSDPTLSPDIQEQGGKIRLDFAKTQLPDALRVRLDVKDFATPVQFVNASAQSDRTSITIEPSGLYDYLVYQTDNRLTVSIKPMTTEDAERRKKDNFAYTGEKLSLNFQDIDVRSVLQLIADFTDLNLVASDTVQGNITLRLQNVPWDQALDLVLKTKGLDKRKLGNVLLVAPADEIAARERQELEAQKQIAELAPLRRELIQVNYAKAADIAKLFQSVTSDGGQEGKEGGRGSITVDDRTNSIIAYQPQERLDELRRIVSQLDIPVRQVMIEARIVEANVGYDKSLGVRWGGAYHKGNWSGYGKDGNIGIKDEDGMNCGPIAGSCTFPTTGTSKSPSPFVDLGAKDATSGIGIGFITDNIILDLQLSAMEKTGNGEIVSQPKVVTSDKETAKILKGSEVPYQEASSSGATSTSFKEAALSLEVTPQITPDNRIIVEVKVTKDAPDYQNMLNGVPPINKNEVNAKILVNDGETIVIGGVFSNEQSKSVEKVPFLGELPYLGRLFRRDTVTDRKNELLVFLTPRIMNNQAIAIGR
B1: the stoichiometry N in assay [3] was 14 and 15.
